Source: US20040161756A1, “Substrate linked directed evolution (slide)” (priority 2000, published 2004)

Columns and labels:
[1] = test system: loxP sites; experiment: Recombination of pEVO-loxP^2 excision substrate in E. coli; type: cell-based; details: expressed from the arabinose promoter, even at very low expression levels
Source text: (§1) Evolution vectors: The pEVO vector series is based on the plasmid pBAD-33 (Guzman et al., J Bacteriol 177, 4121-30 (1995)). pEVO-loxP^2, pEVO-3, pEVO-6 and pEVO-10 are identical except for the recognition target sites for the recombinase (see also FIG. 3). pEVO-loxP^2 contains two tandemly repeated loxP sites as they exist in the bacteriophage P1, spaced by 690 bp. pEVO-3, contains two recognition target sites which differ in 3 nucleotides per halfsite from a loxP site. The spacer in pEVO-3 is identical to the one found in loxP sites from bacteriophage P1. pEVO-6 recognition target sites (loxH) have the spacer sequence altered in all eight positions in addition to the three nucleotides changes present in pEVO-3. pEVO-10 contains two loxH sites as well as two loxP sites, which are intertwined. Recombinase expression levels can be titrated by the amount of L-arabinose added to the medium.
(§2) To test the method of the invention, Cre recombinase was first cloned into the vector pEVO-loxP^2, which contains two loxP sites, oriented as an excision substrate. […] As a first step, the three nucleotides different in the loxH halfsites were introduced (pEVO-3). […] Libraries of mutated recombinase were cloned into pEVO3 and screened at low recombinase expression levels.

[2] = test system: pSVpaH (loxH sites); experiment: Recombination reporter assay in CHO cells, pSVpaH; type: cell-based, chinese hamster; details: co-transfection
Source text: (§3) a) Plasmids expressing the depicted recombinases from the PGK promoter were co-transfected with the recombination reporter plasmids pSVpaX (loxP sites) or pSVpaH (loxH sites) into CHO cells. Illustrations of plasmids pSVpaX, pSVpaH, and pSVpaZ is presented. White triangles depict loxH sites, grey triangles loxP sites, and black triangles FRT sites. SV40═SV40 early promoter; pac=puromycin acetytransferase.
(§4) Cell culture: Chinese hamster ovary (CHO) cells were transfected with plasmid DNA using Lipofectamine (GibcoBRL). Crude cell extracts were prepared after 36 hours and Luciferase activity of cell extracts were determined with the Luciferase assay system from Promega. Relative β-galactosidase activities were measured with the Galacto-Light kit from Tropix. The Cre recombination reporter plasmid pSVpaX has been described earlier (Buchholz et al., Nucleic Acids Res 24, 4256-62 (1996)). pSVpaH is identical to pSVpaX except that the loxP sites were exchanged with loxH sites. […] Recombination efficiencies were calculated from measured β-galactosidase activities, corrected by transformation efficiencies assayed by Luciferase measurements.
(§5) The recombination properties of Fre1 and Fre3 were evaluated in mammalian cells, by co-transfecting chinese hamster ovary (CHO) cells with reporter and recombinase expression plasmids (FIG. 6a). […]

[3] = test system: pSVpaX (loxP sites); experiment: Recombination reporter assay in CHO cells, pSVpaX; type: cell-based, chinese hamster; details: co-transfection, within 36 hours, from β-galactosidase activities
Source text: as §3, §4, §5

[4] = test system: recognition target sites which differ in 3 nucleotides per halfsite from a loxP site; experiment: Recombination of pEVO-3 in E. coli; type: cell-based
Source text: as §1, §2

[5] = test system: loxH sites; experiment: Recombination of loxH sites in E. coli (initial experiments and pEVO-6 vector, plasmid gel); type: cell-based
Source text: as §1

B1: Cre: site specific recombinase that recognises the 34 bp loxP sequence; wild type starting protein (protein, UniProt P06956 1-343, looked up)
Recombinase cre: MSNLLTVHQNLPALPVDATSDEVRKNLMDMFRDRQAFSEHTWKMLLSVCRSWAAWCKLNNRKWFPAEPEDVRDYLLYLQARGLAVKTIQQHLGQLNMLHRRSGLPRPSDSNAVSLVMRRIRKENVDAGERAKQALAFERTDFDQVRSLMENSDRCQDIRNLAFLGIAYNTLLRIAEIARIRVKDISRTDGGRMLIHIGRTKTLVSTAGVEKALSLGVTKLVERWISVSGVADDPNNYLFCRVRKNGVAAPSATSQLSTRALEGIFEATHRLIYGAKDDSGQRYLAWSGHSARVGAARDMARAGVSIPEIMQAGGWTNVNIVMNYIRNLDSETGAMVRLLEDGD
recombination of plasmid pEVO-loxP^2 [1]: efficiently recombined
recombination of pSVpaH [2]: little recombination
reporter pSVpaX recombined [3]: approximately 75%
recombination of pEVO-3 ([4]; higher expression levels): recombination was observed
recombination of pEVO-3 ([4]; low expression levels): did not recombine
recombination of pEVO-6 (loxH sites) ([5]; even when induced with arabinose): no recombination
recombination of loxH sites ([5]; initial recombination experiments in E. coli): does not recombine this site at measurable frequency
